Measurements: article PMC4198130, “Protein Interactions of the Vesicular Glutamate Transporter VGLUT1” (PLoS ONE, 2014)
One block for each binder: values may come before it.

Tests used:
[1] = target: T1, GST fusion of the first SH3 domain of Nck2 (human, UniProt O43639 2-61); assay: pull-down; GST fusions of SH3 or WW domains on glutathione sepharose beads, incubated with detergent-solubilized (2% TX-100) rat brain extract, RT 60 min; bound VGLUT1 by immunoblot, band intensity normalised to lysate; settings: one partner purified
T1 construct: Nck2, human, first SH3 domain (D1); also called Nck2 D1

[2] = target: T2, GST fusion of the SH3 domain of human Fyn (pGEX, from Clifford Lowell) (human, UniProt P06241 82-143); assay: as above; settings: one partner purified
T2 construct: Fyn, human, SH3 domain; also called GST-Fyn

[3] = target: T3, GST fusion of the third SH3 domain of Nck1 (human, UniProt P16333 190-252); assay: as above; settings: one partner purified
T3 construct: Nck1, human, third SH3 domain (D3); also called Nck1 D3

[4] = target: T4, GST fusion of the second SH3 domain of Nck1 (human, UniProt P16333 106-165); assay: as above; settings: one partner purified
T4 construct: Nck1, human, second SH3 domain (D2); also called Nck1 D2

[5] = target: T5, GST fusion of the SH3 domain of human Lyn (pGEX, from Clifford Lowell) (human, UniProt P07948 63-123); assay: as above; settings: one partner purified
T5 construct: Lyn, human, SH3 domain; That the pGEX constructs from C; also called GST-Lyn

GST-Lyn-SH3 (Panomics) [6] = target: T6, GST-Lyn-SH3 (Panomics) (human, UniProt P07948 63-123); assay: as above; settings: one partner purified
T6 construct: Lyn, human, SH3 domain; also called SH3 domain of Lyn; source: bought: Panomics (purified GST-Lyn-SH3 protein; also on the TranSignal SH3 Domain Array)

[7] = target: T7, GST fusion of the SH3 domain of Hck (SH3 domain array) (human, UniProt P08631 78-138); assay: peptide or protein array; TranSignal SH3 and WW Domain Arrays (Panomics/Affymetrix): purified GST fusions of human SH3 or WW domains immobilised on a membrane, in duplicate at 100 ng; His-PP1 in solution, detected with anti-His antibody (methods: purified His-PP1; results and legend: bacterial extract with the tagged protein); settings: both partners purified
T7 construct: Hck, human, SH3 domain; source: bought: Panomics/Affymetrix TranSignal SH3 Domain Array (purified GST fusion on a membrane)

[8] = target: T8, GST fusion of the SH3 domain of sorting nexin 9 (Panomics) (human, UniProt Q9Y5X1 1-62); assay: as above; settings: both partners purified
T8 construct: sorting nexin 9, human, SH3 domain; also called SNX9; source: bought: Panomics/Affymetrix (on the TranSignal SH3 Domain Array; GST fusion for pull-down)

[9] = target: GST fusion of the SH3 domain of Src (SH3 domain array) (human, UniProt P12931 84-145); assay: as above; settings: both partners purified
[10] = target: T9, GST fusion of the SH3 domain of EPS8 (Panomics) (human, UniProt Q12929 531-590); assay: as above; settings: both partners purified
T9 construct: EPS8, human, SH3 domain; source: bought: Panomics/Affymetrix (on the TranSignal SH3 Domain Array; GST fusion for pull-down)

[11] = target: T10, GST fusion of the SH3 domain of Fyn (SH3 domain array) (human, UniProt P06241 82-143); assay: as above; settings: both partners purified
T10 construct: Fyn, human, SH3 domain; source: bought: Panomics/Affymetrix TranSignal SH3 Domain Array (purified GST fusion on a membrane)

GST-Lyn-SH3 (Panomics) [12] = target: T6, GST-Lyn-SH3 (Panomics); assay: as above; settings: both partners purified

T6 sequence (P07948 63-123): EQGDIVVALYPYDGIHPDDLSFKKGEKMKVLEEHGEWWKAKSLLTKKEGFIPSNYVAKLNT
T1 sequence (O43639 2-61): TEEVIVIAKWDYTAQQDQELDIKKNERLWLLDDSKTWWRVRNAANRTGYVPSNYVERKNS
T10 sequence (P06241 82-143): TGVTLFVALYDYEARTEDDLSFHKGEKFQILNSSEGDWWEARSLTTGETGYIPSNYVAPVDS
T2 sequence (P06241 82-143): as above
T9 sequence (Q12929 531-590): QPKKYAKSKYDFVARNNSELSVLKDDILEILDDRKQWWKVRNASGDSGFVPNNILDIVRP
T7 sequence (P08631 78-138): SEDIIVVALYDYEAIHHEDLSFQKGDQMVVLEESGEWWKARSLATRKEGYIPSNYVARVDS
T5 sequence (P07948 63-123): as the sequence (P07948 63-123) above
T8 sequence (Q9Y5X1 1-62): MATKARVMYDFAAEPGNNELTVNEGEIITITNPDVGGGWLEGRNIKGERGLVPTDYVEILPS

band intensity normalised to lysate [1]: 0.103 a.u. | band intensity normalised to lysate [2]: 0.362 a.u. | band intensity normalised to lysate [3]: 0.183 a.u. | band intensity normalised to lysate [4]: 0.763 a.u. | band intensity normalised to lysate [5]: 0.877 a.u. | band intensity normalised to lysate (GST-Lyn-SH3 (Panomics) [6]): 0.718 a.u.
B1: VGLUT1 from rat brain extract (natural protein, rat (endogenous in rat brain), UniProt Q62634 1-560, looked up)
chain: MEFRQEEFRKLAGRALGRLHRLLEKRQEGAETLELSADGRPVTTHTRDPPVVDCTCFGLPRRYIIAIMSGLGFCISFGIRCNLGVAIVSMVNNSTTHRGGHVVVQKAQFNWDPETVGLIHGSFFWGYIVTQIPGGFICQKFAANRVFGFAIVATSTLNMLIPSAARVHYGCVIFVRILQGLVEGVTYPACHGIWSKWAPPLERSRLATTAFCGSYAGAVVAMPLAGVLVQYSGWSSVFYVYGSFGIFWYLFWLLVSYESPALHPSISEEERKYIEDAIGESAKLMNPVTKFNTPWRRFFTSMPVYAIIVANFCRSWTFYLLLISQPAYFEEVFGFEISKVGLVSALPHLVMTIIVPIGGQIADFLRSRHIMSTTNVRKLMNCGGFGMEATLLLVVGYSHSKGVAISFLVLAVGFSGFAISGFNVNHLDIAPRYASILMGISNGVGTLSGMVCPIIVGAMTKHKTREEWQYVFLIASLVHYGGVIFYGVFASGEKQPWAEPEEMSEEKCGFVGHDQLAGSDESEMEDEVEPPGAPPAPPPSYGATHSTVQPPRPPPPVRDY
notes: VGLUT1, endogenous in rat brain; source: endogenous, detergent-solubilized rat brain extract

binding result [7]: binds | binding result [8]: binds | binding result [9]: binds | binding result [10]: binds | binding result [11]: binds | binding result (GST-Lyn-SH3 (Panomics) [12]): binds
B2: His-tagged VGLUT1 C-terminal peptide (amino acids 513-549) (domain or fragment, rat, UniProt Q62634 513-549, looked up)
chain: HDQLAGSDESEMEDEVEPPGAPPAPPPSYGATHSTVQ
notes: VGLUT1 (vesicular glutamate transporter 1), rat, amino acids 513-549 of the C-terminus (acidic cluster, first polyproline domain PP1, PEST); Cloned in the Ligand Expression Vector (Panomics/Affymetrix); also called His-PP1; His-VGLUT1 PP1; source: E. coli, purified (Ni-NTA, imidazole elution, dialysis) by the methods; soluble bacterial extract by the results and the legend
